According to the RNAGym collection of RNA variant scans (doi:10.1073/pnas.2313332121):
Variants at the floor of the assay were thinned out.

B1: TPR 5TU (parent)
chain: GGAUCUUCUCGAUCUAACAAAAAAGACAAAUCUGCCACAAAGCUUGAGAGCAUCUUCGGAUGCAGAGGCGGCAGCCUUCGGUGGCGCGAUAGCGCCAACGUUCUCAACUAUGACACGCAAAACGCGUGCUCCGUUGAAUGGAGUUUAUCAUG

Variants of: B1
Assay: polymerase ribozyme fitness, log enrichment relative to wild type (log ratio); higher = more active; in vitro selection for triplet polymerase activity
Outline: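 In triplicate, a single round of in vitro selection was run on each mutant library, PCR-built and transcribed, covering one subunit of a heterodimeric triplet polymerase ribozyme. Frozen incubation at −7 °C followed annealing with a biotinylated primer, partner subunit and triplets, and extended constructs were then gel-excised, streptavidin-captured and taken through RT-PCR. Fitness is the logarithm of genotype enrichment over wild-type enrichment, from inverse-variance-weighted replicate averages of Illumina-sequenced inputs and outputs. […] only genotypes with ≥10 input reads and ≥1 read per output were kept.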

Row | Variant | polymerase ribozyme fitness (log ratio)
1 | GGAUCUUCUCGAUCUAACAAAAAAGACAAAUCUGCCACAAAGCUUGACAGCAUCUUCGGAUGUAGAGGCGGCAGCCUUCGGUGGCGCGAUAGCGCCAACGUUCUCAACUAUGACACGCAAAACGCGUGCUCCGUUGAAUGGGGUUUAUCAUG [G48C C63U A142G] | -1.03
2 | GGAUCUUCUCGAUCUAACAAAAAAGACAAAUCUGCCACAAAGCUUGACAGCAUCUUCGGGUGCAGAGGCGGCAGCGUUCGGUGGCGCGAUAGCCCCAACGUUCCCAACUAUGACACGCAAAACGCGUGCUUCGUUGAAUGGAGUUUAUCAUG [G48C A60G C76G G94C U104C C131U] | ≤ -4.2
3 | GGAUCUUCUCGAUCUAACAAAAAAGACAAAUCUGCCACAAAGCUUGACAGCAUCUUCGGAUGCAGAGGCGGCAGCCUUCGGUGGCGCGAUAGCGCCAAUGUUCUCAACUAUGACACGCAAAACGCGUGCUCCGUUGAAUGGAGUUUAUCAUG [G48C C99U] | -1.72
4 | GGAUCUUCUCGAUCUAACAAAAAAGACAAAUCUGCCACAAAGCUUGACAGCAUCUUCGGAUGCAGAGGCGGCAGCCUUCGGUGGAGCGAUAGCGCCAACGUUCUCAACUAUGACACGCAGAACGCGUGCUCCGUUGAAUGGAGUUUAUCAUG [G48C C85A A120G] | -2.75
5 | GGAUCUUCUCGAUCUAACAAAAAAGACAAAUCUGCCACAAAGCUUGACAGCAUCUUCGGAUGCAGAGGCGGCAGCCUUCGGUGGCGCGAUAGGGCCAACGUUCUCAACUAUGACACGCAAAACGCGUGCUCCGUUGAAUGGAGUUUAUCAUG [G48C C93G] | -3.04
6 | GGAUCUUCUCGAUCUAACAAAAAAGACAAAUCUGCCACAAAGCUUGACCGCAUCUUCGGAUGUAGAGGCGGCAGCCUUCGGUGGCACGAUAGCGCCAACGUUCUCAACUAUGACACGCAAAACGCGUGCUCCGUUGAAUGGAGUUUAUAAUG [G48C A49C C63U G86A C149A] | ≤ -4.2
7 | GGAUCUUCUCGAUCUAACAAAAAAGACAAAUCUGCCACAAAGCUUGACAACAUCAUCGGAUGCAGAGGCGGCAGCCUUCGGUGGCGCGAUAGCGCCAACGUUCUCAACUAUGACACGCAAAACGCGUGCUCCGUUGAAUGGAGUUUAUCAUG [G48C G50A U55A] | -3.03
8 | GGAUCUUCUCGAUCUAACAAAAAAGACAAAUCUGCCACAAAGCUUGACAGCAUCUUCGGAUGCAGAGGCGGCAGCCUUCGGUGGCGGCAUGGCGCCAACGUUCUCAACUAUGACACGCUAAACGCGUGCUCCGGUGAAUGGAGUUUAUCAUG [G48C C87G G88C A91G A119U U134G] | ≤ -4.2
9 | GGAUCUUCUCGAUCUAACAAAAAAGACAAAUCUGCCACAAAGCUUGACAGCAUCUUCGGAUGUAGAGGUGGCAACCUUCGGUGGCGCGAUAGAGCCAACGUGCUCAGCUAUGACACGCAAAACGCGUGCUCCGUUGAAUGGAGUUUAUCAUG [G48C C63U C69U G74A C93A U102G A107G] | ≤ -4.2
10 | GGAUCUUCUCGAUCUAACAAAAAAGACAAAUCUGCCACAAAGCUUGACAGCAUCUUGGGAUGCAGAUGCGGCAGCCUUCGGUGGAGCGAUAGAGCUAACGUUCUCAACUAUGACACGCAAAACGCGUGCUCCGUUGAAUCGAGUUUAUCAUG [G48C C57G G67U C85A C93A C96U G140C] | ≤ -4.2
11 | GGAUCUUCUCGAUCUAACAAAAAAGACAAAUCUGCCACAAAGCUUGACAGCAUAUUCGGAUGCAGAGGCGGCAGCCUUCGGUGGCGCGAUAGCGCCAACGUUCUCAAGUAUGAUACGCAAAACGUGUGCUCCGAUGAAUGGAGUUUAUGAUG [G48C C54A C108G C114U C125U U134A C149G] | ≤ -4.2
12 | GGAUCUUCUCGAUCUAACAAAAAAGACAAAUCUGCCACAAAGCUUGACGGCAUCUUCGGAUGCAGAGGCGGCAGCCUUCGGUGGCGCGAUAGCGCCAACGUUCUCAACUAUGGCACGCAAAACGCGUGCUCCGUUGAAUGGAGUUUAUCAUG [G48C A49G A113G] | ≤ -4.2
13 | GGAUCUUCUCGAUCUAACAAAAAAGACAAAUCUGCCACAAAGCUUGAAAGCAUCUUCGGAUGCAGAGGCGGCAGCCUUCGGUGGCGCGAUAGCGCCAACGGUCUCAACUAUGACACGCAAAACGCGUGCUCCGUUGAAUGGAGUUUAUCAUG [G48A U101G] | -2.26
14 | GGAUCUUCUCGAUCUAACAAAAAAGACAAAUCUGCCACAAAGCUUGACAGCAUCUUCGGAUGCAGAGGCGGCAGCUUUCGGUGGCGCGAUAGCGCCAACGUUCUCAACUAUGACACGCAAAACGCGUGCUCCGUUGAAUGGAGUUUAUCAUG [G48C C76U] | -3.15
15 | GGAUCUUCUCGAUCUAACAAAAAAGACAAAUCUGCCACAAAGCUUGACAGUAUCUUCGGAUGCAGAGGAGGCAGCCUUCGGUGGCGCGAUAGCGCCAACGUUCUCAACUAUGACAGGCAAAACGCGUGCUCCGUUGAAUGGAGUUUAUCAUG [G48C C51U C69A C116G] | ≤ -4.2
16 | GGAUCUUCUCGAUCUAACAAAAAAGACAAAUCUGCCACAAAGCUUGACAUCAUCUUCGUAUGCAGAGGCGGCAGCCUUCGGAGGCGCGAUACCGCCAACGUUCUCAACUAUGACACGCAAAACGCGUGCUCCGUUGAAUGGAGUUUAUCAUG [G48C G50U G59U U82A G92C] | -3.41
17 | GGAUCUUCUCGAUCUAACAAAAAAGACAAAUCUGCCACAAAGCUUGAAAGCAUCUUCGGAUGCAGAGGCGGCAGCCUUCGGUGGCGCGAUAGCGCCAACGUUCUCAACUAUGACACGCAAAACGCGUGCUCCGUAGAAUGGAGUUUAUCAUG [G48A U135A] | -0.864
18 | GGAUCUUCUCGAUCUAACAAAAAAGACAAAUCUGCCACAAAGCUUGACAGCAUCUUCGGAUGCAGAGGCGGCAGCCUUCGGUGGCGCGAUAGCGCAAACGUUCUCAACUAAGACACGCAAAACGCGUGCUCCGUUGACUGGAGUUUAUCAUG [G48C C96A U111A A138C] | ≤ -4.2
19 | GGAUCUUCUCGAUCUAACAAAAAAGACAAAUCUGCCACAAAGCUUGACCGCAUCUUCGGGAGCAGGGGCGGCAGCCUUCGGUGGCGAGAUAGCGCCAACGUUCUCAACUAUGACACGCAAAACGCGUGCUCCGUUGAAUGGAGUUUAUCAUG [G48C A49C A60G U61A A66G C87A] | ≤ -4.2
